The record followed here is article PMC5566391.

Assay [1] deals with TRAIL-Trimer fusion protein (human) (UniProt P50591). The experiment in a line: SDS-PAGE under non-reducing and reducing conditions; 2 µg of purified protein on 10% or 15% SDS-PAGE, Coomassie Blue; TRAIL-Trimer also by western blot. For orientation: A western blot detects proteins with antibodies after separation by electrophoresis.
In assay [2] the target is T1, TRAIL-Fc fusion protein (human), P50591.
T1 chain: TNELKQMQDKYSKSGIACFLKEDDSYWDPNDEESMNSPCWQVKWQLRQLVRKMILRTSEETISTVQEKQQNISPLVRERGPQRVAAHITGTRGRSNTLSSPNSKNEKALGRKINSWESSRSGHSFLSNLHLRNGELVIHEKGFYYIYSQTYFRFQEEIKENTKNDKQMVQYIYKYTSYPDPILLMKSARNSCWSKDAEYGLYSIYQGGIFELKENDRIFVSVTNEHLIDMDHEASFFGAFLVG
The assay is described as above. Conditions: remark: other sources report otherwise.

One may read the stoichiometry N as a count of units in the complex or per binding partner. On to “TRAIL-Trimer fusion protein (from UniProt P50591 39-281) (ligand)”, for which the stoichiometry N in assay [1] is 3.

B1: TRAIL-Fc fusion protein, P50591 39-281 (Fc fusion)
chain: T1 chain
For B1, the stoichiometry N in assay [2] is 2.
